Experimental data from publication PMC10110553.

What was measured:
[1] = biological target: Hsp90 of the yeast-purified Hsp90:Cdc37:CRaf^KD complex (human) (UniProt P08238); experiment: cryo-EM structure; same sample as a1; pairs inside the natively isolated Hsp90^closed:Cdc37:CRaf^KD complex, which was assembled in yeast and co-purified
[2] = biological target: Hsp90 (E. coli purified; used as Hsp90^open without nucleotide or Hsp90^closed) (human) (UniProt P08238)
[3] = biological target: Hsp90 of the mammalian-purified Hsp90:Cdc37:CRaf complexes (human) (UniProt P08238)
[4] = biological target: Hsp90 (E. coli purified; used as Hsp90^open without nucleotide or Hsp90^closed) (human) (UniProt P08238); experiment: fluorescence correlation spectroscopy (FCS); ~20 nM Alexa488-labelled PP5 with varying concentrations of Hsp90^open; room temperature; hydrodynamic radius against Hsp90 concentration, one-site total binding fit; apparent KD
[5] = biological target: Hsp90 (E. coli purified; used as Hsp90^open without nucleotide or Hsp90^closed) (human) (UniProt P08238); experiment: fluorescence correlation spectroscopy (FCS); ~20 nM Alexa488-labelled PP5 with varying concentrations of Hsp90^closed dimer; room temperature; hydrodynamic radius against Hsp90 concentration, one-site total binding fit; apparent KD
[6] = biological target: Hsp90 (E. coli purified; used as Hsp90^open without nucleotide or Hsp90^closed) (human) (UniProt P08238); experiment: as above; remark: listed apart in the source
[7] = biological target: Hsp90 (E. coli purified; used as Hsp90^open without nucleotide or Hsp90^closed) (human) (UniProt P08238); remark: listed apart in the source
[8] = biological target: Hsp90 of the mammalian-purified Hsp90:Cdc37:CRaf complexes (human) (UniProt P08238); remark: listed apart in the source

Chain of UniProt P08238 (P08238 2-724 limits assumed): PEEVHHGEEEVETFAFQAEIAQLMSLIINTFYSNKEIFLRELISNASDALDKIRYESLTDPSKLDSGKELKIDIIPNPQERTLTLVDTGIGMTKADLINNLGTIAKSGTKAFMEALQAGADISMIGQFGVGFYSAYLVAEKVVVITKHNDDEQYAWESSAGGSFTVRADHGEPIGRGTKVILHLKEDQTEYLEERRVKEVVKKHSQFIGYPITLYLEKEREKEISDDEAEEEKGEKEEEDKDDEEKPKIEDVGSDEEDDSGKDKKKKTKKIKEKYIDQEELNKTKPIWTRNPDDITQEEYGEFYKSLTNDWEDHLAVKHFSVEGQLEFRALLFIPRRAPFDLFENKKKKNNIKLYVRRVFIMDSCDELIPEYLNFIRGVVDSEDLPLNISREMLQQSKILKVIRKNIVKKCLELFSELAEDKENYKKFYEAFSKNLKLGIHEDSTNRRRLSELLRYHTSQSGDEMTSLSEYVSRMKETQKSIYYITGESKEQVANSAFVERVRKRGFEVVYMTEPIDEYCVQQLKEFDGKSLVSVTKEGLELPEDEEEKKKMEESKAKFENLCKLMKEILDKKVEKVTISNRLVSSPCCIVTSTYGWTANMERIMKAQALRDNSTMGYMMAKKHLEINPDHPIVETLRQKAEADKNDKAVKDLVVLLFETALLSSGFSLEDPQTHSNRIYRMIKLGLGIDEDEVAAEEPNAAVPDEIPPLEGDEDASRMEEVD

Row | stoichiometry N [1] | rate of Cdc37^pS13 dephosphorylation by PP5 in Hsp90^open:Cdc37^pS13 (3 μM Cdc37^pS13 and equimolar Hsp90, 750 nM PP5, 25 °C) [2] [min^−1] | rate of CRaf^pS338 dephosphorylation by PP5 in the Hsp90:Cdc37:CRaf complex (3 μM complex, 150 nM PP5, 25 °C) [3] [min^−1] | Kd [4] [µM] | Kd [5] [µM] | Kd [6] [µM] | rate of Cdc37 dephosphorylation by PP5^(αJ del) while Cdc37 is bound to Hsp90 [7] [min⁻¹] | rate of CRaf^pS338 dephosphorylation by PP5^(αJ del) in the Hsp90:Cdc37:CRaf complex [8] [min^−1] | Molecule
1 | – | 0.043 | 0.19 | 0.62 | 230 | 0.43 | – | – | Serine/threonine-protein phosphatase 5 (PP5), wild type (enzyme, Alexa488 (maleimide dye) in the FCS assays) MAMAEGERTECAEPPRDEPPADGALKRAEELKTQANDYFKAKDYENAIKFYSQAIELNPSNAIYYGNRSLAYLRTECYGYALGDATRAIELDKKYIKGYYRRAASNMALGKFRAALRDYETVVKVKPHDKDAKMKYQECNKIVKQKAFERAIAGDEHKRSVVDSLDIESMTIEDEYSGPKLEDGKVTISFMKELMQWYKDQKKLHRKCAYQILVQVKEVLSKLSTLVETTLKETEKITVCGDTHGQFYDLLNIFELNGLPSETNPYIFNGDFVDRGSFSVEVILTLFGFKLLYPDHFHLLRGNHETDNMNQIYGFEGEVKAKYTAQMYELFSEVFEWLPLAQCINGKVLIMHGGLFSEDGVTLDDIRKIERNRQPPDSGPMCDLLWSDPQPQNGRSISKRGVSCQFGPDVTKAFLEENNLDYIIRSHEVKAEGYEVAHGGRCVTVFSAPNYCDQMGNKASYIHLQGSDLRPQFHQFTAVPHPNVKPMAYANTLLQLGMM
2 | – | 0.012 | 0.04 | – | 3300 | – | – | – | PP5^R150D (enzyme, Alexa488 (maleimide dye) in the FCS assays) MAMAEGERTECAEPPRDEPPADGALKRAEELKTQANDYFKAKDYENAIKFYSQAIELNPSNAIYYGNRSLAYLRTECYGYALGDATRAIELDKKYIKGYYRRAASNMALGKFRAALRDYETVVKVKPHDKDAKMKYQECNKIVKQKAFEDAIAGDEHKRSVVDSLDIESMTIEDEYSGPKLEDGKVTISFMKELMQWYKDQKKLHRKCAYQILVQVKEVLSKLSTLVETTLKETEKITVCGDTHGQFYDLLNIFELNGLPSETNPYIFNGDFVDRGSFSVEVILTLFGFKLLYPDHFHLLRGNHETDNMNQIYGFEGEVKAKYTAQMYELFSEVFEWLPLAQCINGKVLIMHGGLFSEDGVTLDDIRKIERNRQPPDSGPMCDLLWSDPQPQNGRSISKRGVSCQFGPDVTKAFLEENNLDYIIRSHEVKAEGYEVAHGGRCVTVFSAPNYCDQMGNKASYIHLQGSDLRPQFHQFTAVPHPNVKPMAYANTLLQLGMM
3 | – | 0.006 | 0.046 | – | 4300 | – | – | – | PP5^R113D (enzyme, Alexa488 (maleimide dye) in the FCS assays) MAMAEGERTECAEPPRDEPPADGALKRAEELKTQANDYFKAKDYENAIKFYSQAIELNPSNAIYYGNRSLAYLRTECYGYALGDATRAIELDKKYIKGYYRRAASNMALGKFDAALRDYETVVKVKPHDKDAKMKYQECNKIVKQKAFERAIAGDEHKRSVVDSLDIESMTIEDEYSGPKLEDGKVTISFMKELMQWYKDQKKLHRKCAYQILVQVKEVLSKLSTLVETTLKETEKITVCGDTHGQFYDLLNIFELNGLPSETNPYIFNGDFVDRGSFSVEVILTLFGFKLLYPDHFHLLRGNHETDNMNQIYGFEGEVKAKYTAQMYELFSEVFEWLPLAQCINGKVLIMHGGLFSEDGVTLDDIRKIERNRQPPDSGPMCDLLWSDPQPQNGRSISKRGVSCQFGPDVTKAFLEENNLDYIIRSHEVKAEGYEVAHGGRCVTVFSAPNYCDQMGNKASYIHLQGSDLRPQFHQFTAVPHPNVKPMAYANTLLQLGMM

The remaining lines, values behind:

Row | Molecule | stoichiometry N [1] | rate of Cdc37^pS13 dephosphorylation by PP5 in Hsp90^open:Cdc37^pS13 (3 μM Cdc37^pS13 and equimolar Hsp90, 750 nM PP5, 25 °C) [2] [min^−1] | rate of CRaf^pS338 dephosphorylation by PP5 in the Hsp90:Cdc37:CRaf complex (3 μM complex, 150 nM PP5, 25 °C) [3] [min^−1] | Kd [4] [µM] | Kd [5] [µM] | Kd [6] [µM] | rate of Cdc37 dephosphorylation by PP5^(αJ del) while Cdc37 is bound to Hsp90 [7] [min⁻¹] | rate of CRaf^pS338 dephosphorylation by PP5^(αJ del) in the Hsp90:Cdc37:CRaf complex [8] [min^−1]
4 | Hsp90 of the yeast-purified Hsp90:Cdc37:CRaf^KD complex (from UniProt P08238 1-724) (natural protein) | 2 | – | – | – | – | – | – | –
5 | PP5^F148K (enzyme, Alexa488 (maleimide dye) in the FCS assays) MAMAEGERTECAEPPRDEPPADGALKRAEELKTQANDYFKAKDYENAIKFYSQAIELNPSNAIYYGNRSLAYLRTECYGYALGDATRAIELDKKYIKGYYRRAASNMALGKFRAALRDYETVVKVKPHDKDAKMKYQECNKIVKQKAKERAIAGDEHKRSVVDSLDIESMTIEDEYSGPKLEDGKVTISFMKELMQWYKDQKKLHRKCAYQILVQVKEVLSKLSTLVETTLKETEKITVCGDTHGQFYDLLNIFELNGLPSETNPYIFNGDFVDRGSFSVEVILTLFGFKLLYPDHFHLLRGNHETDNMNQIYGFEGEVKAKYTAQMYELFSEVFEWLPLAQCINGKVLIMHGGLFSEDGVTLDDIRKIERNRQPPDSGPMCDLLWSDPQPQNGRSISKRGVSCQFGPDVTKAFLEENNLDYIIRSHEVKAEGYEVAHGGRCVTVFSAPNYCDQMGNKASYIHLQGSDLRPQFHQFTAVPHPNVKPMAYANTLLQLGMM | – | 0.009 | 0.05 | – | 2000 | – | – | –
6 | PP5^(αJ del) (PP5 with the last 10 residues truncated) (enzyme, Alexa488 (maleimide dye) in the FCS assays) MAMAEGERTECAEPPRDEPPADGALKRAEELKTQANDYFKAKDYENAIKFYSQAIELNPSNAIYYGNRSLAYLRTECYGYALGDATRAIELDKKYIKGYYRRAASNMALGKFRAALRDYETVVKVKPHDKDAKMKYQECNKIVKQKAFERAIAGDEHKRSVVDSLDIESMTIEDEYSGPKLEDGKVTISFMKELMQWYKDQKKLHRKCAYQILVQVKEVLSKLSTLVETTLKETEKITVCGDTHGQFYDLLNIFELNGLPSETNPYIFNGDFVDRGSFSVEVILTLFGFKLLYPDHFHLLRGNHETDNMNQIYGFEGEVKAKYTAQMYELFSEVFEWLPLAQCINGKVLIMHGGLFSEDGVTLDDIRKIERNRQPPDSGPMCDLLWSDPQPQNGRSISKRGVSCQFGPDVTKAFLEENNLDYIIRSHEVKAEGYEVAHGGRCVTVFSAPNYCDQMGNKASYIHLQGSDLRPQFHQFTAVPHPNVKPMAY | – | – | – | 0.12 | – | 0.13 | 0.055 | 0.28
